This series in a line: soluble on expression in E. coli; label from the status in PepcDB or PDB records.
Take “MSNILIINGAKKFAHSNGQLNDTLTEVADGTLRDLGHDVRIVRADSDYNVKAEVQNFLWADVVIWQMPGWWMGAPWTVKKYIDDVFTEGHGTLYASDGRTRKDPSKKYGSGSLVQDKKYMLSLTWNAPMEAFTEKDQFFHGVGVDGVYLPFHKANQFLGMEPLPTFIANDVIKMPDVPRYTEEYRKHLVEIFG”: the “soluble on expression in E. coli” value is given as “not soluble”. In the case of “MYEYSFNPNIDHEPGSVESQQSTIYSDSDDSDDSFLDDEVIPPKEQAMRKIEFALADIKRQMDNKEKSLTLRISTSKSHFCLRYTAKRKGKLDRDLHCLHQVYDLLENDKRSTKRELYYEHKAVYGNQKYLDSSIKSICELLNESRANLNILSCGRGIIRGAITFLVENVGVIDARVQEVLITDALLFSNIISEADFILVVEKDTTFQKLMDENFQAMFPRGILATSKGYPDIATRNVLKMLSEKRKFPIYGLFDADPHGIEIYLTYKYGPTKEFAEGRGAFVPTIEWIGLFPTDFHRFTIDQSQCLPLVRTDFVKIEKMIPRSIQLGEIVVTRELDWMIQNKFKMELESINMCGQEYMARFLIAPRVMSIEKEIPIQPETIINEYHEDSQCSLSTDDDREAKDDDYIDSDAEEKFQNMIDNDSD” it was “not soluble”; in that of “MGSDKIHHHHHHMAAIGSYNITLLNRESIKENAAYPIADNVEVIALSGSLFEFYKKLKKQISSNNYDVVVVHNMGKLSLLCAFVPNIKKLVVLEHVSFISRPKKIQILSKFLYRNIDQVVTLTQNDKEQFDKFHSNVIVIPNFSPFSIASQPQNNGKQIVTIGRLTDQKNYIHLLQAWKKIYQSIPDWQLNIYGEGEQEEMLQDYIKQQSLKNVSLKGSTSNVKEVYEQSSFFVMSSKYEGLPMVLIEAQSFGLPIVSYNCPYGPSDVIRDSKNGFLVEDQNVDELAAAVLKVALSPQLLEQFSQSSLLNAKKYQPEQILKIWIEKVLEG”, “not soluble”; in that of “PLGSKDNRLLYPKTKIDWGPGENHICLKTPFKNFYVIELFHQAPTFDKTIPLFISDINNSPNLYGIYNYIADHLRHVVLVNNYPVNQINIFGKIVYEQYKEKEFNGVEESYVILVISDFIGIDSKIRVRLSQEQFKEVGLTLDKKNYGKIVELEGEIYNWYDSINVSKKPDRELKVSKITVLSHRPDGLHFEFEQWKKRMEFRKNNLVEPWVFIPTPQRE”, “soluble”. Consider “MAGDPMTALKYLQAYPVALQQQVRQLIDEQRLGDYLSQRYPGRHAVQSDKALYSYALELKQEYLRNAPAIDKVLFDNRLDLTHRALGLHTTVSRVQGGKLKAKKEIRIASLFKEAAPEFLRMIVVHELAHFKESDHNKAFYKLCEHMLPGYHQLEFDLRVYLTWRDLQGKAGAPDLEHHHHHH”, for which the “soluble on expression in E. coli” value is listed as “soluble”. In the case of “MISTANITQQFGAKPLFENISVKFGEGNRYGLIGANGCGKSTFMKILSGELEPTGGNVSYDPNERVAKLNQDQFAYEEFTVIDTVIMGHKELWEVKQERDRIYSLPEMSEEDGMKVADLEVQFAEMDGYMAEAKAGELLLAVGIPMEQHFGLMSEVAPGWKLRVLLAQILFADPDIMLLDEPTNNLDMDTIRWLEDTLNARNCTMIIISHDRHFLNSVCTHMADLDYGELRVYPGNYDEYMTAASQARERLLSDNAKKKAQIAELQTFVARFSANASKAKQATSRAKQIDKIKLDEVKASSRQNPFIRFEQSKELFRNA” it was “not soluble”; in that of “MKRLTERVIIMKGAGEMATGVACRLHRSGFRRILMLEAPSPLAVRRGVSFCEAIHNGRKSVEGIEAVRIENGSALADAWGKGEIPLLADPQGDAVRRMEPDILIDATIAKRNLGIAITDAPLVIALGPGFFAGRDCHLVIETNRGHNLGRLIACGEAEPNTGIPGNIGGYTRERVLRAPADGHFTTEKVIGDQVSKGDVVGIVGTNTVTASIDGILRGLIRPGTHVTTGLKIGDIDPRGDTAYCHTISEKARALGGSVLEAILTVYNQLEHHHHHH”, “not soluble”. With “MGHHHHHHSHMHTPEVASPSPGDRCREKSSPRPQTRFPSWHRVGDGWRVSIGTARSGCCQVGPCQGSSPLSTLCLAVPAPRYSNMACTQQSGGTTMVTADAPRLCLVNVAEQNGRLDPEEGPLSWHLSLAT”, the “soluble on expression in E. coli” value is reported as “not soluble”. Next, “MGSDKIHHHHHHMDEQTHTHLSRRRTLTASAGVLSAGLAGCITSGDTDGDPESGPTVAVASFFSFYDFARKIVADTPITVRNLIPTGLHGHGWEPNASITKEILDADALIHVGPDFQPWVDRAIESLDDDDADTRRINVRDGVELVDLAASLDRDEEGIGQNRGKDPHFWLDPNRAKQSIDNLTEGFVQLAPSHENTLRTNAAAYKSGVLDELDDAYAAIFDRADRDVVQLAAHNAFQYLGTAYDIEMRPLVVNLAASGTVKASDIMDAKQTIDDNDITYIGAAVFETRRPAEQLLSETDVEAYYPVTPYAGVREDWVQQGWGYEEIARNINMPTFKLLLGNAAPDDVGGAEWNATWRNFE”: “not soluble”.

“MTYDYVIGMDACKYFHHACVLDIDGTQVLSKRINQNEQSLRALFSAFSAYDHKVLVVVDQPNNIGRLTVAVAQDIGIDVRYLPGLAMRQLSRIHAGNAKTDIRDAYIIAHAAKNLPESLRSVDRVEEAFLQLKVLNGIDEDLARSYTRLINQIRSALVGCYPQFEQALRGQIIHRKWVLHLLARYGGPTKIKRLGKAKAAAFARRYKARNPEPVLDAIFAAISEQTVTIAGAHYAEMGVAMSAKDALLKLEHRQQIEKEVIELINDIPHTQFLLSMPGIGPKTAAQILMTAGDMSDFPSAGHLASYAGLSPRTNQSGTSIMSNSLNRAGNKKLKNALWQSSFASIRFHERSRQFYERKRREGKRHNAAVVALARRRLNVLYAMMRNHEHYHDPAPSQEDLAA”: the “soluble on expression in E. coli” value is listed as “not soluble”. In the case of “MGSDKIHHHHHHMEISFTRVALLAAALFFVGCDQKPQPAKTHATEVTVLEGKTMGTFWRASIPGIDAKRSAELKEKIQTQLDADDQLLSTYKKDSALMRFNDSQSLSPWPVSEAMADIVTTSLRIGAKTDGAMDITVGPLVNLWGFGPEQQPVQIPSQEQIDAMKAKTGLQHLTVINQSHQQYLQKDLPDLYVDLSTVGEGYAADHLARLMEQEGISRYLVSVGGALNSRGMNGEGLPWRVAIQKPTDKENAVQAVVDINGHGISTSGSYRNYYELDGKRLSHVIDPQTGRPIEHNLVSVTVIAPTALEADAWDTGLMVLGPEKAKEVVRREGLAVYMITKEGDSFKTWMSPQFKSFLVSEKN” it was “not soluble”; in that of “KKHTGYVGLKNQGATCYMNSLLQTLFFTNQLRKAVYMMPTEGDDSSKSVPLALQRVFYELQHSDKPVGTKKLTKSFGWETLDSFMQHDVQELCRVLLDNVENKMKGTCVEGTIPKLFRGKMVSYIQCKEVDYRSDRREDYYDIQLSIKGKKNIFESFVDYVAVEQLDGDNKYDAGEHGLQEAEKGVKFLTLPPVLHLQLMRFMYDPQTDQNIKINDRFEFPEQLPLDEFLQKTDPKDPANYILHAVLVHSGDNHGGHYVVYLNPKGDGKWCKFDDDVVSRCTKEEAIEHNYGGHDDDLSVRHCTNAYMLVYIRESKLSEVLQAVTDHDIPQQLVERLQEEKRIEAQKRKERQE”, “soluble”. “MRSQRELTSPMTPLENPGDISDKPRLTTQKLSLGYGQQLIINKLSLSIKNGAFSVIIGPNGCGKSTLLRALSRSLLPQNGSIRLDQQDIQHYKAKVFARQLSLLSQGASISETLTVFDLVSRGRYAHQSFFHQWSTEDERIVKAAISAVNLESLVQQRVSELSGGQRQRAWFAMTLAQHTPIVLLDEPTTYLDIAHQIEMLDLCQELQQQGKTLVLVLHDINQALRYATHLIMLKEGQIYAEGLPESIVTEDSIAAVFGLRCRIITDPESGKPLVIPRRQSR”: the “soluble on expression in E. coli” value is reported as “not soluble”. In the case of “MCTARTAEEIFVETIAVKTRILNDRVLLEAARAIGDRLIAGYRAGARVFMCGNGGSAADAQHFAAELTGHLIFDRPPLGAEALHANSSHLTAVANDYDYDTVFARALEGSARPGDTLFAISTSGNSMSVLRAAKTARELGVTVVAMTGESGGQLAEFADFLINVPSRDTGRIQESHIVFIHAISEHVEHALFAPRQ” it was “soluble”; in that of “MRVALTIAGSDSGGGAGVQADLKVFFRFGVYGTSALTLVTAQNTLGVQRVHLLPPEVVYAQIESVAQDFPLHAAKTGALGDAAIVEAVAEAVRRFGVRPLVVDPVMVAKSGDPLLAKEAAAALKERLFPLADLVTPNRLEAEALLGRPIRTLKEAEEAAKALLALGPKAVLLKGGHLEGEEAVDLLATRGGVLRFSAPRVHTRNTHGTGCTLSAAIAALLAKGRPLAEAVAEAKAYLTRALKTAPSLGHGHGPLDHWA”, “soluble”. Next, “MGHHHHHHSHMGNDKRSQIFTLSRYAGILRRCLKENAMSAQKPGLHPRNRHHSRYDLATLCQVNPELRQFLTLTPAGEQSVDFANPLAVKALNKALLAHFYAVANWDIPDGFLCPPVPGRADYIHHLADLLAEASGTIPANASILDIGVGANCIYPLIGVHEYGWRFTGSETSSQALSSAQAIISSNPGLNRAIRLRRQKESGAIFNGIIHKNEQYDATLCNPPFHDSAAAARAGSERKRRNLGLNKDDALNFGGQQQELWCEGGEVTFIKKMIEESKGFAKQVMWFTSLVSRGENLPPLYRALTDVGAVKVVKKEMAQGQKQSRFIAWTFMNDEQRRRFVNRQR”: “soluble”. Regarding “MNEQWMSALPLDNVKDISPVSGGDVNEAFKVTTVEEDIFFLLVQRQRSEAFYAAEIAGLNEFENAGITAPRVIASGEINGDAYLLLSFLEEGSQGSQRELARLVARMHSQYQQDNKFGFRLPHEGADISFDNSWTETWKEIFINRRMDHLQDELLRVGLWKQEDKKMYERVRKVIVDELSNHTSKPSLLHGDLWGGNYMFLTNGQPALFDPAPLYGDREFDIGITTVFGGFTQEFYDEYNQQLPLAKGSQKRIEFYRLYLLMIHLLKFGGMYADSVQRSMKIILELEHHHHHH”, the “soluble on expression in E. coli” value is reported as “soluble”.

As to “MSLRNKLQQAKRIVIKVGTSSLIYPNGNINLKAIDQLAFTLSDLSNQGKEIILVSSGAIGVGLNKLNLSVRPTTIPEQQAVAAVGQAELMNIYNQRFSTYSQQMAQVLLTRDVIEYPESRNNVTNTFEQLLKMNIIPIVNENDTVAIEELDHLTKFGDNDQLSAIVCQIVQADLLVMLSDIDGFFSDNPTVNKEATLFSEINEINEDLFQLAGGKGSRFGTGGMSSKLKAAERVLANQQAMILANGKQPKIIFEILEGKDIGTLFIKGGHESDEGHHHHHH”, the “soluble on expression in E. coli” value was “soluble”.

Take “MGSDKIHHHHHHMPLYQPLTPRLFMRQWRASDLPCFARMNADRRVMRFFPASLTRRQSDAMAERCSMLIDSQGWGFWAVEERSSGLFAGMVGLHRPSGDLPFAPCVEVGWRLDPDHWGKGYATEAAAAALDIAFNTLGLHEVVAFTAVLNTPSQAVMRRLGMRHAMDFEHPAVPADSPLRAHCLYRTDKEEHQRRHGL”: the “soluble on expression in E. coli” value was “not soluble”.

As to “MAHHHHHHMSALAKKMMEKYGWKEGEGLGKERSGIKSYVKVTRRDPHTATGLGHAADPAQGGSLASTHAVELDAIYGQLHKETRKRQRQSSKARVDQGDTSEDEVDNGGELSDVSSTNSGASSSSSADSKSEGKAAVAARAAVKRQRRAPSSSPSNSGNDGDDRTDSKRSKGEHIGDVTRMSDKELFQRCGGVRLGRAGRHRLFDGKLKRIQDSS”, the “soluble on expression in E. coli” value is “soluble”. In the case of “MKTLLPTSTAGSLPKPSWLAQPEKLWSPWKLQDEELIEGKRDALRLSLNDQQQAGIDIVSDGEQTRQHFVTTFIEHLSGVDFEKRETVRIRNRYDASVPTVVGAVSREKPVFVEDAKFLRQQTRQPIKWALPGPMTMIDTLYDSHYKSREKLAWEFAKILNQEARELEAAGVDIIQFDEPAFNVFFDEVNDWGVATLEKAIEGLKCETAVHICYGYGIKANTDWKKTLGSEWRQYEEAFPKLQKSNIDLISLECHNSRVPMDLIELIRGKKVMVGAIDVATSAIETPEEVADTLRKALRFVDADKLYPCTNCGMAPLSRQVARSKLNALGAGAEIIRRELSVAAALEHHHHHH” it was “not soluble”.

The values are drawn from the DeepSol protein solubility set.
